Positions count from the first letter of the chain named. Each block holds one binder with its values, some of them ahead of it.
Assays:
[1] = target: T1, hmm.hTfRC (REGN2431), human transferrin receptor extracellular domain with hexahistidine-myc-myc tag (human, UniProt P02786 89-760); assay: SPR (Biacore), mAb captured on anti-human Fc, 100 nM hTFR-mmh, 25 C
T1 construct: Monomeric recombinant protein, 79210 g/mol; also called hTFR-mmh; His-myc-myc-hTFRC ecto
Procedure: (§1) Biacore binding kinetics assays were conducted for the interaction of 32 anti-human TfR IgG1 monoclonal antibodies from CHO supernatants with TfR reagents at 25° C.
(§2) Equilibrium dissociation constants (KD) for the interaction of anti-TfR monoclonal antibodies with human and fascicularis monkey TfR ecto domain recombinant proteins were determined using a real-time surface plasmon resonance (SPR) based Biacore S200 biosensor. All binding studies were performed in 10 mM HEPES, 150 mM NaCl, 3 mM EDTA, and 0.05% v/v surfactant Tween-20, pH 7.4 (HBS-EP) running buffer at […]. The Biacore CM5 sensor surface was first derivatized by amine coupling with a monoclonal mouse anti-human Fc antibody (REGN2567) followed by a step to capture anti-TfR monoclonal antibodies in CHO conditioned media. […] The dissociation of TfR bound to anti-TfR monoclonal antibodies was monitored for 3 minutes in HBS-EP running buffer. At the end of each cycle, the anti-TfR monoclonal antibodies capture surface was regenerated using a 12-sec injection of 20 mM H₃PO₄. The association rate (ka) and dissociation rate (kd) were determined by fitting the real-time binding sensorgrams to a 1:1 binding model with mass transport limitation using Scrubber 2.0 c software. The dissociation equilibrium constant (KD) and dissociative half-life (t½) were calculated from the kinetic rate constants as: […]

[2] = target: T2, mf TFRC ecto-mmh (REGN2054), monomeric monkey (cyno) Tfrc ectodomain with C-terminal myc-myc-hexahistidine tag (monkey (cyno), Macaca fascicularis, UniProt H9EXL1 89-760); assay: SPR (Biacore), mAb captured on anti-human Fc, 100 nM mfTfR-mmh, 25 C
T2 construct: range 89-760; also called mfTfR-mmh; mfTFR-mmh
T2 sequence (chain, as listed by the source): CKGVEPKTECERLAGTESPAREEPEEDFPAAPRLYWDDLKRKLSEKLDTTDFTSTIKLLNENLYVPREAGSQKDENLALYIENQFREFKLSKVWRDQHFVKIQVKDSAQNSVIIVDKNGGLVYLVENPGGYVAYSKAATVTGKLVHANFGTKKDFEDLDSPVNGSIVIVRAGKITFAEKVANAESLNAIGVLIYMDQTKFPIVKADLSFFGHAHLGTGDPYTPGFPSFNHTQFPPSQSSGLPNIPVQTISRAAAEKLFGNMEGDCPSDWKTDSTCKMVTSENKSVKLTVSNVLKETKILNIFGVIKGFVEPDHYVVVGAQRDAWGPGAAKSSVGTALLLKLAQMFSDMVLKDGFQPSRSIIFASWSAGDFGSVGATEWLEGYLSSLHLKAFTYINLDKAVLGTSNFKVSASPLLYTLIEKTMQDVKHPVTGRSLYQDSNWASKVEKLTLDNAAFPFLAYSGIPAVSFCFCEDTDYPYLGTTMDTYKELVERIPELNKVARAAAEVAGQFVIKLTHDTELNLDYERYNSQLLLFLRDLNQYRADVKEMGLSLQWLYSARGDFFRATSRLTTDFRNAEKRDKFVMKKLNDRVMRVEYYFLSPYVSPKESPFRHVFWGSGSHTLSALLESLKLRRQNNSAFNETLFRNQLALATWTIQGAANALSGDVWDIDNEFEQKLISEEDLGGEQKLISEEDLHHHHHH
Procedure: as §1, §2

[3] = target: T2, mf TFRC ecto-mmh (REGN2054), monomeric …; assay: SPR (Biacore), mAb from CHO supernatant captured on anti-human Fc, 100 nM mfTfR-mmh injected, 25 C
Procedure: as §1, §2

[4] = target: T3, Hmm-hTFRC (REGN2431), monomeric human transferrin receptor ectodomain with N-terminal hexahistidine-myc-myc … (human, UniProt P02786 89-760); assay: blocking ELISA, supernatant; Hmm-hTFRC binding to immobilized human holo-Tf
T3 construct: also called hmm.hTfR(C89-F763); His-myc-myc-hTFRC ecto
T3 sequence (P02786 other isoform, or with tags, fused parts or gaps): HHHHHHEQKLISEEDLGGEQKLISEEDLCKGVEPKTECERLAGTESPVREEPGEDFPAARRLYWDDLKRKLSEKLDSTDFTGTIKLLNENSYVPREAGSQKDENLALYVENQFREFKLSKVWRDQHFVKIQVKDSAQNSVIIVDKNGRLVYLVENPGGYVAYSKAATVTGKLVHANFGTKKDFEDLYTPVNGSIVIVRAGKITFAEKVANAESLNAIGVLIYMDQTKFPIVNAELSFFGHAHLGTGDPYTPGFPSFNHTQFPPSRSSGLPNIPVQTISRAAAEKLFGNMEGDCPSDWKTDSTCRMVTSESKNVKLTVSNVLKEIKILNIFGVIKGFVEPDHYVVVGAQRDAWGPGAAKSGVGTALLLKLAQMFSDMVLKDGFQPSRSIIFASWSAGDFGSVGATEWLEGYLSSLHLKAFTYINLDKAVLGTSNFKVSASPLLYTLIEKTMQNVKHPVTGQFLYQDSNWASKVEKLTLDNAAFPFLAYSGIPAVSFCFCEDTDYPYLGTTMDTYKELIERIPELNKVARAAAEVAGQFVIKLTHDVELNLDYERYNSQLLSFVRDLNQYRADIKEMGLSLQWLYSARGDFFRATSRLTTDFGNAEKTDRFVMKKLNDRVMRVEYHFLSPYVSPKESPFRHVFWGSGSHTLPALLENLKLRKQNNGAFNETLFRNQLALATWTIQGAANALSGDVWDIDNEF
Method in brief: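 Plates were coated with anti-hTf goat pAb at 2 µg/mL overnight at 4 °C, then loaded with human holo-Tf at 1 µg/mL for 2 h at room temperature. Bound receptor was detected with TMB and absorbance read at 450 nm.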

T1 sequence (P02786 other isoform, or with tags, fused parts or gaps): as above

B2: 69340 scFv (VK-VH) (scFv)
scFv: EIVLTQSPATLSLSPGERATLSCRASQSVSSYLAWYQQKPGQAPRLLIHDVSNRATGIPARFSGSGSGTDFTLTISSLEPEDFVVYYCQQRSDWPITFGQGTRLEIKGGGGSGGGGSGGGGSEVQLVESGGGLVQPGRSLRLSCAASGFTFDDKAMHWVRQVPGKGLEWISGISWNSGTIGYADSVKGRFIISRDNAKNSLYLQMNSLRAEDTALYYCAKDGDTSGWYWYGLDVWGQGTTVTVSS
notes: CHO supernatant; Vk-3xG4S-Vh
% Blocking [4]: 13%

B3: 69332 scFv (VH-VK) (scFv)
chain: QVTLRESGPALVKPSQTLTLTCTFSGFSLNTYGMFVSWIRQPPGKALEWLAHIHWDDDKYYSTSLKTRLTISKDTSKNQVVLTMTNMDPVDTATYYCARGHNNLNYIIHWGQGTLVTVSSAIQMTQSPSSLSASVGDRVTITCRASQGIRNDLGWYQQKPGKAPKLLIYAASTLQSGVPSRFSGSGSGTDFTLTISSLQPEDFATYYCLQDYNYPFTFGPGTKVDIK
% Blocking [4]: 6%

B4: 69348 scFv (VH-VK) (scFv)
chain: QVQLVESGGGVVQPGRSLRLSCAASGFTFTTYGMHWVRQAPGKGLEWVAVIWYDGSNKYYGDSVKGRFTISRDNSKNTLYLQMNSLRVDDTAVYYCTRTHGYTRSSDGFDYWGQGTLVTVSSDIQMTQSPSSLSASVGDRVTITCRASQSIRNVLGWFQQKPGKAPQRLIYAASSLQSGVPSRFSGSGSGTEFTLTISSLQPEDFATYYCLQHNFYPLTFGGGTKVEIK
% Blocking [4]: 0%

B6: 12834B (antibody, human IgG1, kappa, V domains shown)
VH: QVQLVQSGAEVKKPGASVKVSCKASGYTFTSYGISWVRQAPGQGLEWMGWISVYHGNTNYAQKFQGRVTMTTDTSTSTAYMELRSLRSDDTAVYYCAREGYYDFWSGYYPFDYWGQGTLVTVSS
VL: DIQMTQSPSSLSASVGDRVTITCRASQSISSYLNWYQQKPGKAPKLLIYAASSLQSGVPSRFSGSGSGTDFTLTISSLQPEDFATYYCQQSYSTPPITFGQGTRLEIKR
notes: Tested as bivalent human IgG1 from CHO primary supernatant
100 nM Ag Bound (RU) [1]: 11 RU
Kd [1]: 7 nM
koff [1]: 0.00439 s⁻¹
kon [1]: 600000 M⁻¹ s⁻¹
t½ [1]: 2.6 min
100 nM Ag Bound (RU) [2]: 5 RU
binding result [3]: no binding (tested: 100 nM)

B7: 69307 (antibody, human IgG1, kappa, V domains shown)
VH: EVQLVESGGGLVQPGGSLRLSCTASGFTFSNYWMTWVRQAPGKGLEWVANIKEDGSEKEYVDSVKGRFTISRDNAKNSLYLQMNSLRGEDTAVYYCARDGEQLVDYYYYYVMDVWGQGTTVTVSS
VL: DIQMTQSPSSVSASVGDRVTITCRASQGISSWLAWYQQKPGKAPKLLIYAASSLQSGVPSRFSGSGSGTDFTLTISSLQPEDFATYYCQKADSLPYAFGQGTKLEIKR
notes: as for B6
100 nM Ag Bound (RU) [1]: 1280 RU
Kd [1]: 0.226 nM
koff [1]: 4.26e-05 s⁻¹
kon [1]: 190000 M⁻¹ s⁻¹
t½ [1]: 271 min
100 nM Ag Bound (RU) [2]: 3 RU
binding result [3]: no binding (tested: 100 nM)

B8: 12812B (antibody, human IgG1, kappa, V domains shown)
VH: QVQLVQSGAEVKKPGSSVRVSCKASRGTFSSYAISWVRQAPGQGLEWMGGIIPIFGTANYAQKFLARVTITADESTSTAYMELSSLRSEDTAVYYCAREKGWNYFDYWGQGTLVTVSS
VL: B7 VL with S9P, K90Q, D92N, L94F, Y96R, A97T, L104V
notes: as for B6
100 nM Ag Bound (RU) [1]: 11 RU
Kd [1]: 3.02 nM
koff [1]: 0.00131 s⁻¹
kon [1]: 433000 M⁻¹ s⁻¹
t½ [1]: 8.8 min
100 nM Ag Bound (RU) [2]: 1 RU
binding result [3]: no binding (tested: 100 nM)

B9: 69329 (antibody, human IgG1, kappa, V domains shown)
VH: B7 VH with T23A, E59D
VL: B7 VL with D92N, L94F, A97T
notes: as for B6
100 nM Ag Bound (RU) [1]: 1100 RU
Kd [1]: 0.97 nM
koff [1]: 0.000186 s⁻¹
kon [1]: 192000 M⁻¹ s⁻¹
t½ [1]: 62.2 min
100 nM Ag Bound (RU) [2]: 8 RU
binding result [3]: no binding (tested: 100 nM)

B10: 69348 scFv (VK-VH) (scFv)
scFv: DIQMTQSPSSLSASVGDRVTITCRASQSIRNVLGWFQQKPGKAPQRLIYAASSLQSGVPSRFSGSGSGTEFTLTISSLQPEDFATYYCLQHNFYPLTFGGGTKVEIKGGGGSGGGGSGGGGSQVQLVESGGGVVQPGRSLRLSCAASGFTFTTYGMHWVRQAPGKGLEWVAVIWYDGSNKYYGDSVKGRFTISRDNSKNTLYLQMNSLRVDDTAVYYCTRTHGYTRSSDGFDYWGQGTLVTVSS
notes: CHO supernatant; Vk-3xG4S-Vh
% Blocking [4]: 16%

B13: 69331 scFv (VH-VK) (scFv)
chain: QVQLVESGGGVVQPGRSLRLSCIASGFTFSVYGIHWVRQAPGKGLEWMAVISHDGNIKHYADSVKGRFTISRDNSKNTLYLQINSLRTEDTAVYYCAKDTWNSLDTFDIWGQGTMVTVSSDIQLTQSPSSLSASVGDRVTITCWASQGISSYLAWYQQKPGKAPKLLIYAASTLQSGVPSRFSGSGSGTEFTLTISSLQPEDFATYYCQQLNSYPLTFGGGTKVEIK
% Blocking [4]: 7%

B14: 69332 Fab (Fab, V domains shown)
VH: QVTLRESGPALVKPSQTLTLTCTFSGFSLNTYGMFVSWIRQPPGKALEWLAHIHWDDDKYYSTSLKTRLTISKDTSKNQVVLTMTNMDPVDTATYYCARGHNNLNYIIHWGQGTLVTVSS
VL: AIQMTQSPSSLSASVGDRVTITCRASQGIRNDLGWYQQKPGKAPKLLIYAASTLQSGVPSRFSGSGSGTDFTLTISSLQPEDFATYYCLQDYNYPFTFGPGTKVDIKR
notes: CHO supernatant
% Blocking [4]: 18%

B16: 69340 scFv (VH-VK) (scFv)
chain: EVQLVESGGGLVQPGRSLRLSCAASGFTFDDKAMHWVRQVPGKGLEWISGISWNSGTIGYADSVKGRFIISRDNAKNSLYLQMNSLRAEDTALYYCAKDGDTSGWYWYGLDVWGQGTTVTVSSEIVLTQSPATLSLSPGERATLSCRASQSVSSYLAWYQQKPGQAPRLLIHDVSNRATGIPARFSGSGSGTDFTLTISSLEPEDFVVYYCQQRSDWPITFGQGTRLEIK
% Blocking [4]: 6%

Further lines, results first:

100 nM Ag Bound (RU) [1]: 680 RU
Kd [1]: 2.22 nM
koff [1]: 0.000256 s⁻¹
kon [1]: 115000 M⁻¹ s⁻¹
t½ [1]: 45.1 min
100 nM Ag Bound (RU) [2]: 9 RU
binding result [3]: no binding (tested: 100 nM)
B1: 69326 (antibody, human IgG1, kappa, V domains shown)
VH: EVQLVESGGGLVQPGGSLRLSCAVSGFIFSSYEMNWVRQAPGKGLEWVSYISSSGSTIFYADSVKGRFTISRDNAKNSLYLQMNSLRAEDTAVYYCVSGVVLFDVWGQGTMVTVSS
VL: EIVMTQSPATLSVSPGERATLSCRASQSVSSNFAWYQQKPGQAPRLLIYSASSRATGIPVRFSGSGSGTEFTLTISSLQSEDFAVYYCQQYNIWPRTFGQGTKVEIKR
notes: as for B6

% Blocking [4]: 40%
B5: 69348 Fab (Fab, V domains shown)
VH: QVQLVESGGGVVQPGRSLRLSCAASGFTFTTYGMHWVRQAPGKGLEWVAVIWYDGSNKYYGDSVKGRFTISRDNSKNTLYLQMNSLRVDDTAVYYCTRTHGYTRSSDGFDYWGQGTLVTVSS
VL: DIQMTQSPSSLSASVGDRVTITCRASQSIRNVLGWFQQKPGKAPQRLIYAASSLQSGVPSRFSGSGSGTEFTLTISSLQPEDFATYYCLQHNFYPLTFGGGTKVEIKR
notes: CHO supernatant

% Blocking [4]: 3%
B11: 69340 Fab (Fab, V domains shown)
VH: EVQLVESGGGLVQPGRSLRLSCAASGFTFDDKAMHWVRQVPGKGLEWISGISWNSGTIGYADSVKGRFIISRDNAKNSLYLQMNSLRAEDTALYYCAKDGDTSGWYWYGLDVWGQGTTVTVSS
VL: EIVLTQSPATLSLSPGERATLSCRASQSVSSYLAWYQQKPGQAPRLLIHDVSNRATGIPARFSGSGSGTDFTLTISSLEPEDFVVYYCQQRSDWPITFGQGTRLEIKR
notes: CHO supernatant

% Blocking [4]: 13%
B12: 69331 scFv (VK-VH) (scFv)
scFv: DIQLTQSPSSLSASVGDRVTITCWASQGISSYLAWYQQKPGKAPKLLIYAASTLQSGVPSRFSGSGSGTEFTLTISSLQPEDFATYYCQQLNSYPLTFGGGTKVEIKGGGGSGGGGSGGGGSQVQLVESGGGVVQPGRSLRLSCIASGFTFSVYGIHWVRQAPGKGLEWMAVISHDGNIKHYADSVKGRFTISRDNSKNTLYLQINSLRTEDTAVYYCAKDTWNSLDTFDIWGQGTMVTVSS
notes: CHO supernatant; Vk-3xG4S-Vh

% Blocking [4]: 22%
B15: 69332 scFv (VK-VH) (scFv)
scFv: AIQMTQSPSSLSASVGDRVTITCRASQGIRNDLGWYQQKPGKAPKLLIYAASTLQSGVPSRFSGSGSGTDFTLTISSLQPEDFATYYCLQDYNYPFTFGPGTKVDIKGGGGSGGGGSGGGGSQVTLRESGPALVKPSQTLTLTCTFSGFSLNTYGMFVSWIRQPPGKALEWLAHIHWDDDKYYSTSLKTRLTISKDTSKNQVVLTMTNMDPVDTATYYCARGHNNLNYIIHWGQGTLVTVSS
notes: CHO supernatant; Vk-3xG4S-Vh
